Results reported in patent US20090280138A1 (OXFORD BIOMEDICA UK, published 2009).

B1: 5T4 9-mer peptide 30 PDQCPALCE (peptide)
peptide: PDQCPALCE
B2: 5T4 9-mer peptide 13 LLGWVSSSS (peptide)
peptide: LLGWVSSSS
B3: 5T4 9-mer peptide 47 VRNLFLTGN (peptide)
peptide: VRNLFLTGN
B4: 5T4 9-mer peptide 37 RTVKCVNRN (peptide)
peptide: RTVKCVNRN
B5: 5T4 9-mer peptide 43 VPTDLPAYV (peptide)
peptide: VPTDLPAYV
B6: 5T4 9-mer peptide 12 LVLLGWVSS (peptide)
peptide: LVLLGWVSS
B7: 5T4 9-mer peptide 28 QPPLPDQCP (peptide)
peptide: QPPLPDQCP
B8: 5T4 9-mer peptide 2 GGCSRGPAA (peptide)
peptide: GGCSRGPAA
B9: 5T4 9-mer peptide 44 TDLPAYVRN (peptide)
peptide: TDLPAYVRN
B10: 5T4 9-mer peptide 7 DGRLRLARL (peptide)
peptide: DGRLRLARL
B11: 5T4 9-mer peptide 22 SSAPFLASA (peptide)
peptide: SSAPFLASA
B12: 5T4 9-mer peptide 41 NLTEVPTDL (peptide)
peptide: NLTEVPTDL
B13: 5T4 9-mer peptide 34 ECSEAARTV (peptide)
peptide: ECSEAARTV
B14: 5T4 9-mer peptide 16 SSSPTSSAS (peptide)
peptide: SSSPTSSAS
B15: 5T4 9-mer peptide 32 PALCECSEA (peptide)
peptide: PALCECSEA
B16: 5T4 9-mer peptide 25 ASAVSAQPP (peptide)
peptide: ASAVSAQPP
B17: 5T4 9-mer peptide 21 FSSSAPFLA (peptide)
peptide: FSSSAPFLA
B18: 5T4 9-mer peptide 18 TSSASSFSS (peptide)
peptide: TSSASSFSS
B19: 5T4 9-mer peptide 6 AGDGRLRLA (peptide)
peptide: AGDGRLRLA
B20: 5T4 9-mer peptide 31 QCPALCECS (peptide)
peptide: QCPALCECS
B21: 5T4 9-mer peptide 29 PLPDQCPAL (peptide)
peptide: PLPDQCPAL
B22: 5T4 9-mer peptide 11 LALVLLGWV (peptide)
peptide: LALVLLGWV
B23: 5T4 9-mer peptide 5 PAAGDGRLR (peptide)
peptide: PAAGDGRLR

These binders were tested against T1, MHC class I molecule A*0101 (biotin (bound to streptavidin-coated plate)) (assay: iTopia iScore).
T1 construct: also called A1; HLA-A1
Protocol: (§1) The 9 mers were tested for Peptide Binding, Off Rate and Affinity using iTopia Epitope Discovery System in accordance with the manufacturer's instructions. Briefly, 96 well microtitre plates coated with MHC molecules representing different MHC alleles are used to identify candidate peptides. […] Determinations are performed in duplicate using an ELISA plate reader and included allele specific positive controls.
(§2) Finally, multiparametric analysis is performed on the results from these assays and an iScore is generated. The iScore represents a measure of the overall quality of peptide-MHC binding, enabling candidate peptides to be ranked in order of binding quality and allowing rational prioritisation of peptides for functional cellular follow-up studies.
B1 showed an iScore of 0. B2 showed an iScore of 0. In the case of B3, the iScore is reported as 0. B4 showed an iScore of 0. For B5, the iScore was 0.098. With B6 the iScore was 0. Binder B7 has an iScore of 0. B8 showed an iScore of 0. B9 gave an iScore of 0. B10 showed an iScore of 0. In the case of B11, the iScore is reported as 0. In the case of B12, the iScore is reported as 0. Work on B13 yielded an iScore of 0. For B14, the iScore was 0. Work on B15 yielded an iScore of 0. Work on B16 yielded an iScore of 0. B17 showed an iScore of 0.023. Work on B18 yielded an iScore of 0. Work on B19 yielded an iScore of 0. With B20 the iScore was 0. B21 was tested, and the iScore was 0. B22 showed an iScore of 0. Binder B23 has an iScore of 0.

The binders below were run against T2, MHC class I molecule A*0201 (biotin (bound to streptavidin-coated plate)) (assay: iTopia iScore).
T2 construct: also called A2; HLA-A2
Protocol: as §1, §2
B1 gave an iScore of 0. With B2 the iScore was 0.243. In the case of B3, the iScore is reported as 0. With B4 the iScore was 0. B5 was tested, and the iScore was 0.059. Binder B6 has an iScore of 0.122. B7 gave an iScore of 0. B8 showed an iScore of 0.016. In the case of B9, the iScore is reported as 0. B10 was tested, and the iScore was 0. Binder B11 has an iScore of 0.389. B12 was tested, and the iScore was 0.253. Binder B13 has an iScore of 0. B14 showed an iScore of 0. For B15, the iScore was 0.082. B16 was tested, and the iScore was 0. With B17 the iScore was 0.116. B18 showed an iScore of 0.037. Work on B19 yielded an iScore of 0.023. B20 was tested, and the iScore was 0. Binder B21 has an iScore of 0.88. B22 was tested, and the iScore was 0.237. B23 was tested, and the iScore was 0.

The binders below were run against T3, MHC class I molecule A*0301 (biotin (bound to streptavidin-coated plate)) (assay: iTopia iScore).
T3 construct: also called A3; HLA-A3
Protocol: as §1, §2
With B1 the iScore was 0. For B2, the iScore was 0. Binder B3 has an iScore of 0. Binder B4 has an iScore of 0. In the case of B5, the iScore is reported as 0. For B6, the iScore was 0. Work on B7 yielded an iScore of 0. Binder B8 has an iScore of 0. B9 was tested, and the iScore was 0. B10 was tested, and the iScore was 0. With B11 the iScore was 0. Binder B12 has an iScore of 0. In the case of B13, the iScore is reported as 0. Work on B14 yielded an iScore of 0. B15 gave an iScore of 0. For B16, the iScore was 0. B17 gave an iScore of 0. B18 was tested, and the iScore was 0. Work on B19 yielded an iScore of 0. B20 gave an iScore of 0. B21 showed an iScore of 0. Binder B22 has an iScore of 0. Work on B23 yielded an iScore of 0.

These binders were tested against T4, MHC class I molecule B*0702 (biotin (bound to streptavidin-coated plate)) (assay: iTopia iScore).
T4 construct: also called B7; HLA-B7
Protocol: as §1, §2
Work on B1 yielded an iScore of 0. B2 gave an iScore of 0. B3 showed an iScore of 0. Work on B4 yielded an iScore of 0. In the case of B5, the iScore is reported as 0. In the case of B6, the iScore is reported as 0. With B7 the iScore was 0. B8 was tested, and the iScore was 0.012. B9 showed an iScore of 0. With B10 the iScore was 0.038. Work on B11 yielded an iScore of 0. Work on B12 yielded an iScore of 0. B13 was tested, and the iScore was 0. With B14 the iScore was 0. With B15 the iScore was 0. Work on B16 yielded an iScore of 0. With B17 the iScore was 0. Binder B18 has an iScore of 0. Work on B19 yielded an iScore of 0. With B20 the iScore was 0. B21 showed an iScore of 0. B22 gave an iScore of 0. With B23 the iScore was 0.
